Consider two molecules from PMC4860841, “eIF2 interactions with initiator tRNA and eIF2B are regulated by post-translational modifications and conformational dynamics” (Cell Discovery, 2015).

The labels stand for the following.
B1: eukaryotic initiation factor 2 α-subunit (eIF2α) (natural protein, Saccharomyces cerevisiae, UniProt P20459 1-304, looked up)
chain: MSTSHCRFYENKYPEIDDIVMVNVQQIAEMGAYVKLLEYDNIEGMILLSELSRRRIRSIQKLIRVGKNDVAVVLRVDKEKGYIDLSKRRVSSEDIIKCEEKYQKSKTVHSILRYCAEKFQIPLEELYKTIAWPLSRKFGHAYEAFKLSIIDETVWEGIEPPSKDVLDELKNYISKRLTPQAVKIRADVEVSCFSYEGIDAIKDALKSAEDMSTEQMQVKVKLVAAPLYVLTTQALDKQKGIEQLESAIEKITEVITKYGGVCNITMPPKAVTATEDAELQALLESKELDNRSDSEDDEDESDDE
modifications: found in the purified protein (Table 1): N-term-ac-S2, pS194, pS292, pS294, pS301
notes: eIF2 α-subunit, encoded by SUI2 in yeast Saccharomyces cerevisiae; Expressed from plasmid pAV1089 [SUI2 SUI3 6xHisGCD22 URA3]; N-terminal acetylation on S2 implies that the first methionine is removed; also called SUI2; source: S. cerevisiae strain GP3511 overexpressing the three eIF2 subunits

Assay [1] deals with T1, eukaryotic initiation factor 2 γ-subunit (eIF2γ), His-tagged (Saccharomyces cerevisiae, UniProt P32481 1-527, found in the purified protein (Table 1): pT60, acK129, pT137, pS258, pS265, pS312, acK401, acK519).
T1 construct: eIF2 γ-subunit, encoded by GCD11 in yeast Saccharomyces cerevisiae (the methods print the plasmid's gene as '6xHisGCD22'); also called GCD11; source: S. cerevisiae strain GP3511 overexpressing the three eIF2 subunits
Nature of the assay: native MS; intact His-tagged eIF2 purified from yeast, buffer exchanged against 500 mM ammonium acetate; QSTAR XL modified for high-mass complexes; tandem MS of the 24+ charge state of intact eIF2. The conditions noted are these: both partners purified.

Assay [2] deals with B1. The assay is described as follows: cross-linking; purified apo eIF2 with a 1:1 mixture of 2.5 mM BS3-d0/d4, 1 h, room temperature; gel, trypsin, LC-MS/MS; also compared with the ternary complex (Met-tRNAi^Met, GDPNP) by BS3-d0 against BS3-d4. The conditions noted are these: both partners purified.

T1 sequence (P32481 whole entry): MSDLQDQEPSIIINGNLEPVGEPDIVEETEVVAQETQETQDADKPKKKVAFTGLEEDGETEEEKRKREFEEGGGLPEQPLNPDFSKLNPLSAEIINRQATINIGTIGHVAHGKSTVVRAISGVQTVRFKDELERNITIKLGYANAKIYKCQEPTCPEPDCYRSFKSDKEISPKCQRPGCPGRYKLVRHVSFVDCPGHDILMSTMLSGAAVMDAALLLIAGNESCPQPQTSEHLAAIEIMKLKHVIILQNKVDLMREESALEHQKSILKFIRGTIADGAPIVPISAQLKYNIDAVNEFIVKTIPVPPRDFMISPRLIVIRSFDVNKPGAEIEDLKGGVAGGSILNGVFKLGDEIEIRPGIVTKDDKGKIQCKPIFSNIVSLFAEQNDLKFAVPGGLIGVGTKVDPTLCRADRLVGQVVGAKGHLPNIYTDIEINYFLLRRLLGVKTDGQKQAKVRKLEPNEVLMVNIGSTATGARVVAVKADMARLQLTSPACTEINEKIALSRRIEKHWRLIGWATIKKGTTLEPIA

As usually defined, the stoichiometry N is the number of molecules, sites or subunits per partner or assembly. For the molecule B1, in assay [1], the “stoichiometry N” value was 1.

B2: eukaryotic initiation factor 2 β-subunit (eIF2β) (natural protein, Saccharomyces cerevisiae, UniProt P09064 1-285, looked up)
chain: MSSDLAAELGFDPALKKKKKTKKVIPDDFDAAVNGKENGSGDDLFAGLKKKKKKSKSVSADAEAEKEPTDDIAEALGELSLKKKKKKTKDSSVDAFEKELAKAGLDNVDAESKEGTPSANSSIQQEVGLPYSELLSRFFNILRTNNPELAGDRSGPKFRIPPPVCLRDGKKTIFSNIQDIAEKLHRSPEHLIQYLFAELGTSGSVDGQKRLVIKGKFQSKQMENVLRRYILEYVTCKTCKSINTELKREQSNRLFFMVCKSCGSTRSVSSIKTGFQATVGKRRRM
modifications: found in the purified protein (Table 1): N-term-ac-S2, pS40, acK89, pS91, pS92, pS112
notes: eIF2 β-subunit, encoded by SUI3 in yeast Saccharomyces cerevisiae; Expressed from plasmid pAV1089 [SUI2 SUI3 6xHisGCD22 URA3]; N-terminal acetylation on S2 implies that the first methionine is removed; also called SUI3; source: S. cerevisiae strain GP3511 overexpressing the three eIF2 subunits
Consider B2, for which, in assay [2], the binding result is reported as “binds”. The “stoichiometry N” value in assay [1] was 1.
